Source: a protein production outcome set (Wang et al. 2014)

Test: label from the status in PepcDB records

Row | Sequence | protein production
1 | MSQTSLEPLIISIIKLQILQLWLKLIAVGWNLGSNDDELYTELWKACAGPLVEVPRYGERVFYFPQGHMEQLVASTNQGVVDQEIPVFNLPPKILCRVLSVTLKAEHETDEVYAQITLQPEEDQSEPTSLDPPLVEPAKPTVDSFVKILTASDTSTHGGFSVLRKHATECLPSLDMTQPTPTQELVARDLHGYEWRFKHIFRGQPRRHLLTTGWSTFVTSKRLVAGDAFVFLRGETGDLRVGVRRLAKQQSTMPASVISSQSMRLGVLATASHAVTTTTIFVVFYKPRISQFIISVNKYMMAMKNGFSLGMRYRMRFEGEESPERIFTGTIIGSGDLSSQWPASKWRSLQIQWDEPSSIQRPNKVSPWEIEPFSPSALTPTPTQQQSKSKRSRPISEITGSPVASSFLSSFSQSHESNPSVKLLFQDPATERNSNKSVFSSGLQCKITEAPVTSSCRLFGFDLTSKPASATIPHDKQLISVDSNISDSTTKCQDPNSSNSPKEQKQQTSTRSRIKVQMQGTAVGRAVDLTLLRSYDELIKELEKMFEIEGELSPKDKWAIVFTDDEGDRMLVGDDPWNEFCKMAKKLFIYPSDEVKKMRSKSLLGDKGTIVNLESDQRTVHV | failed
2 | MSRAYTGALSYPQKIVIILLNKISSQHLKGDIFGGLTAAVIALPLALAFGVSSGAGAIAGVYGAIFVGFFAALFGGTATQISGPTGPMSVVMALVFTQLIGSHPDTGLVLAFTCVILAGLFQILFGLLKLGKYFVMVPYPVISGFMTGIGIIIILLQISPLLGSAGDSNALAALMNIPNALSQQNTLATVLGVITLLLMIYWPEKWTKIIPAPLFALITLTVISATFFSQQGISVIGEIPTGFPSLSMPSLSLESLSQVSYFAFLLAVLGAIDSLLTSMVADTLTETHHDSDKELIGQGIANTIAGFFGALPGAGATMRTAINIRAGGKTALSGIIHSITLLIVILWAGDYAQYIPHTVLAGMLIKVGLDIIDWRFIFQIKKVGLFSATLMLLVLLLTVFVDLITAVLVGMFIANLVTLDRLTHIQLDNITFKRGDELLSEISSNETNIALTDDIQNNLSKSLANTLLLEIDGPVSFAVSRELSRRFTENLAFTTLVIDLSNAKLIGTTTAIMITDLIDRTKSKEKTVLVITGNEKINQSLDKLSLATLLDKKYQFTNREQALQTLI | failed
3 | MSRCASRFRISSKLSATFRTTHKSHQARNPAGFFVIMGYHKDATKRMIMVYTKVYPMRFGYIALGTPPIQSLDIRKMPKLTDMQIRAWIKSGERFEGRADGNGLYLRYREADKTPTWRFRYKLAGKSRAMLIGSYSELSLSKARETAKELSARVALGYDVAGEKQKRKTEALAKMEAEKNAMRVSELAAEYFERQILPRWKHPDILRRRIDKDINPCIGSMKVEDVKPRHIDDMLKGIVDRGAPTIATDVLRWTRRIFDYGIKRHALEINPCSAFEVADAGGKEAARDRWLTRDELIQLFKAMRTAKGFSRQNEITFKLLLALCVRKMELCAARWEEFDLDGAVWHLPEERSKNGDPIDIPLPSPAVEWLRELHTFSCNSAWVLPARKMQNRMIPHIQESTLPVALAKVRAEMPDVPNFTIHDFRRTARTHLAALGVDPVVAERCLNHRIKGVEGIYNRHQYFDERKAALAQWADLLVALESGKDYNVTPLRRAN | failed
4 | MSRHPARTGEKTFFGHPFQLSTLFHIELWERFSFYGMQGILLIYLYYTADKGGLGIDKTLAGGIVGAYSGSVYLSTILGAWFADRVWGAEKTLFLSGIVVMLGHIVLAAAPGLYGLLIGLIFIALGSGGVKSTASSMVGALYEQDEMRPLRDAGFSIFYIAINIGGFLGPLLTGLLQENIGFHYGFGAAAVGMAFGLWRYSLGRKNLPHPTVPHPLSKGQGKTAAAVGITLIAALATAIKTGLVNLDNFSGILLSTVILAVIAYFARLLTNPRVSSDNKRHIIAYIPLFLTICMFWAVWFQIYTVATVYFDETVNRTIGSFTVPVAWKDSMQSLWVILFSGLMAAMWTKMGRKQPKTPLKFAMAVFVTGASFLGFVPFISSGTPMPIAVFALIVLAITIGELMISPIALSISTKIAPPLFKTQMVALNFLAFSLGFTLGGVLFEKGYQAGDEIGFYRLLFYIGAATGFLLLLLVPKLNKMLEGTD | failed
5 | MSRKILDRYIAKTVLSAIGLVTLMLVGLQIFILFVNQIDDLGRADYGIVQAGVFVLLQMPYQVYLFFPIASLLGCLVGLGVLANHSELVVMRAAGISIGQITGAVLKASLIVILLITSLGETIVPVMAHYANEYKVSALTGGQALLTPRGVWVRNGNDFVSIASVTHENTLRYVNQFRFDNQHNLKLARQISEVKYVNNSWIAYDVKQTEFAEDHTKAHHFDTLPWDVPVKPEILKITGTNPDEMTLHELNRYLREQQRNHQNVANYKFAFFQRITQPLNTMVMMILAIPFIFGPLRSSTMGSKLLVGAMVGFGFHILNRFFGPVSTVFQWPPELAAFSPTLIFSLIGIYLMRRVR | failed
